Assay results from patent US20060259987A1 (UNIVERSITY OF UTAH RESEARCH FOUNDATION, published 2006).
Where a chain is given by its changes, count along the chain named. Numbers in names are those of the source. Each block holds one binder with its values, some of them ahead of it.

Tests used:
thrombin [1] = target: T1, thrombin (human, UniProt P00734 328-622); experiment: Kapp IIa/hep relative to plasma.at3
factor Xa [2] = target: T2, factor Xa (human, UniProt P00742 41-179; P00742 235-488, limits assumed); experiment: Kapp fXa/hep relative to plasma.at3
T2 construct: also called fXa; human factor Xa
T2 sequence (P00742 41-179 limits assumed, chain 1 of 2): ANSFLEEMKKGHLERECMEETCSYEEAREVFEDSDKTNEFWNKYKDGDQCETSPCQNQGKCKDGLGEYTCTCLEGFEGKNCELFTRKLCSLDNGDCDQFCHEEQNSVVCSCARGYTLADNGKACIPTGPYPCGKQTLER
T2 sequence (P00742 235-488 limits assumed, chain 2 of 2): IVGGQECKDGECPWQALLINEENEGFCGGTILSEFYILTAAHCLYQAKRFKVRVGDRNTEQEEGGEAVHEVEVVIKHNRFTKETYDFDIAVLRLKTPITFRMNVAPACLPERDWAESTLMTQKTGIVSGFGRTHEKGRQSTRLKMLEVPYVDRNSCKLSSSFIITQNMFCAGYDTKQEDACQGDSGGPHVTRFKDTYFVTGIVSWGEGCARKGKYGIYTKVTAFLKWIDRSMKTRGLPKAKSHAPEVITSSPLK

thrombin [3] = target: T1, thrombin; experiment: thrombin prog: pseudo-first-order loss of chromogenic activity, no heparin, 25 C
Protocol: (§1) Polybrene was added with the chromogenic substrate to quench the heparin dependent reaction. […] This was plotted against the heparin concentration to calculate the second-order rate constant for the inhibition by the heparin-ATIII complex, (Kₕₑₚ) from the equation Kobs=Kₕₑₚ[H]ₒ([AT]ₒ/[AT]ₒ+Kd)+Kuncat[AT]ₒ

factor Xa [4] = target: T2, factor Xa; experiment: factor Xa +hep: pseudo-first-order loss of chromogenic activity with heparin
Protocol: (§2) Polybrene was added with the chromogenic substrate to quench the heparin dependent reaction. The observed pseudo-first-order rate constants were calculated for each heparin (1 nM-5 nM) concentration from the slope of the log of residual proteinase activity vs. time. This was plotted against the heparin concentration to calculate the second-order rate constant for the inhibition by the heparin-ATIII complex, (Kₕₑₚ) from the equation Kobs=Kₕₑₚ[H]ₒ([AT]ₒ/[AT]ₒ+Kd)+Kuncat[AT]ₒ

factor Xa [5] = target: T2, factor Xa; experiment: Kapp fXa/prog relative to plasma.at3
thrombin [6] = target: T1, thrombin; experiment: thrombin +hep: pseudo-first-order loss of chromogenic activity with heparin
Protocol: as §2

factor Xa [7] = target: T2, factor Xa; experiment: factor Xa prog: pseudo-first-order loss of chromogenic activity, no heparin, 25 C
Protocol: as §1

thrombin [8] = target: T1, thrombin; experiment: Kapp IIa/prog relative to plasma.at3
thrombin [9] = target: T1, thrombin; experiment: cell-based or functional assay
factor Xa [10] = target: T2, factor Xa; experiment: cell-based or functional assay
[11] = target: T3, human neutrophil elastase (human, UniProt P08246 30-247, limits assumed); experiment: cell-based or functional assay
T3 sequence (looked up): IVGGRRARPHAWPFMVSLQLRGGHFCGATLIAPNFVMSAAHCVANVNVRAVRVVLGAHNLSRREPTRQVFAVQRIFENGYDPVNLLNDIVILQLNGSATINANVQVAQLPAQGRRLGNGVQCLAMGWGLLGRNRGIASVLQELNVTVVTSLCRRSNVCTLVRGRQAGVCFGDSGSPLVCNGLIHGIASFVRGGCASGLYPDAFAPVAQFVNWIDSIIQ

human factor Xa [12] = target: T4, human factor Xa (human, UniProt P00742 41-179; P00742 235-488, limits assumed); experiment: residual enzyme activity against time, pseudo-first-order, progressive (no heparin)
T4 construct: the active enzyme is a two-chain form of it; also called fXa
T4 sequence (P00742 41-179 limits assumed, chain 1 of 2): as the sequence (P00742 41-179 limits assumed, chain 1 of 2) above
T4 sequence (P00742 235-488 limits assumed, chain 2 of 2): as the sequence (P00742 235-488 limits assumed, chain 2 of 2) above

human factor Xa [13] = target: T4, human factor Xa; experiment: residual enzyme activity against time, pseudo-first-order, with heparin
Protocol: as §2

human thrombin [14] = target: T5, human thrombin (human, UniProt P00734 328-622); experiment: residual enzyme activity against time, pseudo-first-order, progressive (no heparin)
human thrombin [15] = target: T5, human thrombin; experiment: thrombin inhibition rate in the presence of heparin (HAH)
human thrombin [16] = target: T5, human thrombin; experiment: thrombin inhibition rate in the absence of heparin
[17] = target: T3, human neutrophil elastase; experiment: cell-based or functional assay; remark: listed apart in the source
human thrombin [18] = target: T5, human thrombin; experiment: cell-based or functional assay
[19] = target: T6, human neutrophil cathepsin G (human, UniProt P08311 21-244); experiment: cell-based or functional assay
T6 sequence (looked up): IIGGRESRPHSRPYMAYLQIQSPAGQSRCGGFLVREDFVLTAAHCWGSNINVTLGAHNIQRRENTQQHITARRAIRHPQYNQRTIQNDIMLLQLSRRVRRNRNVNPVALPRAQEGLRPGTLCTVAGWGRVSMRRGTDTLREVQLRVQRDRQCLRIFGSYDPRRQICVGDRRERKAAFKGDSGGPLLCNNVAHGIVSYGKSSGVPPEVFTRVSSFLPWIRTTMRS

human factor Xa [20] = target: T4, human factor Xa; experiment: cell-based or functional assay
factor Xa [21] = target: T7, factor Xa (human, UniProt P00742 41-179; P00742 235-488, limits assumed); experiment: heparin cofactor assay, HCA expt #3; ATIII titrated on 10 nM fXa + 50 ug/ml UFH, chromogenic readout
T7 construct: Active factor Xa has a light and a heavy chain; also called fXa
Protocol: (§3) After 3 minutes, the reactions were quenched with polybrene and chromogenic substrate S2238 (thrombin) or S2765 (fXa), and the initial rate of chromophore production (405 nm) recorded to obtain a measurement residual, uninhibited thrombin or factor Xa. IC50s were determined from plots of ATIII concentration vs. percent residual target enzyme activity.
T7 sequence (P00742 41-179 limits assumed, form in doubt, chain 1 of 2): as the sequence (P00742 41-179 limits assumed, chain 1 of 2) above
T7 sequence (P00742 235-488 limits assumed, form in doubt, chain 2 of 2): as the sequence (P00742 235-488 limits assumed, chain 2 of 2) above

thrombin [22] = target: T8, thrombin (human, UniProt P00734 328-622); experiment: cell-based or functional assay; remark: listed apart in the source
factor Xa [23] = target: T7, factor Xa; experiment: cell-based or functional assay; remark: listed apart in the source
thrombin [24] = target: T8, thrombin; experiment: heparin cofactor assay, HCA expt #3; ATIII titrated on 10 nM thrombin + 50 ug/ml UFH, chromogenic readout
Protocol: as §3

Kapp as a percentage of the plasma ATIII value (thrombin [1]): 34%
Kapp as a percentage of the plasma ATIII value (factor Xa [2]): 217%
kapp (apparent second-order inhibition rate constant) (thrombin [3]): 2680 M⁻¹ s⁻¹
kapp (apparent second-order inhibition rate constant) (factor Xa [4]): 1.25e+06 M⁻¹ s⁻¹
Kapp as a percentage of the plasma ATIII value (factor Xa [5]): 510%
kapp (apparent second-order inhibition rate constant) (thrombin [6]): 2.01e+06 M⁻¹ s⁻¹
kapp (apparent second-order inhibition rate constant) (factor Xa [7]): 10700 M⁻¹ s⁻¹
Kapp as a percentage of the plasma ATIII value (thrombin [8]): 38%
IC50 IIa/UFH; HCA #2 (thrombin [9]): 65 nM
IC50 IIa/UFH; HCA #3 (thrombin [9]): 47 nM
IC50 IIa/UFH; HCA #4 (thrombin [9]): 50 nM
rsd. IIa catG; CA #12; stg1 conc 200 (thrombin [9]): 1%
rsd. IIa catG; CA #14; stg1 conc 200 (thrombin [9]): 1%
rsd. IIa catG; CA #15; stg1 conc 200 (thrombin [9]): 1%
rsd. IIa hne; CA #14; stg1 conc 200 (thrombin [9]): 2%
rsd. IIa hne; CA #15; stg1 conc 200 (thrombin [9]): 6%
rsd. IIa no add; CA #14; stg1 conc 200 (thrombin [9]): 2%
rsd. IIa no add; CA #15; stg1 conc 200 (thrombin [9]): 0%
IC50 fXa/UFH; HCA #2 (factor Xa [10]): 20 nM
IC50 fXa/UFH; HCA #3 (factor Xa [10]): 16 nM
IC50 fXa/UFH; HCA #4 (factor Xa [10]): 13 nM
rsd. Xa catG; CA #12; stg1 conc 200 (factor Xa [10]): 1%
rsd. Xa catG; CA #14; stg1 conc 200 (factor Xa [10]): 1%
rsd. Xa catG; CA #15; stg1 conc 200 (factor Xa [10]): 0%
rsd. Xa hne; CA #14; stg1 conc 200 (factor Xa [10]): 1%
rsd. Xa hne; CA #15; stg1 conc 200 (factor Xa [10]): 1%
rsd. Xa no add; CA #14; stg1 conc 200 (factor Xa [10]): 2%
rsd. Xa no add; CA #15; stg1 conc 200 (factor Xa [10]): 0%
B1: LEAI.474 (other)
chain: SPVDICTAKPRDIPMNPMCIYRSPEKKATEDEGSEQKIPEATNRRVWELSKANSRFATTFYQHLADSKNDNDNIFLSPLSISTAFAMTKLGACNDTLQQLMEVFKFDTISEKTSDQIHFFFAKLNCRLYRKANKASKLVSANRLFGDKSLTFNETYQDISELVYGAKLQPLDFKENAEQSRAAINKWVSNKTEGRITDVIPSEAINELTVLVLVNTIYFKGLWKSKFSPENTRKELFYKADGESCSASMMYQEGKFRYRRVAEGTQVLELPFKGDDITMVLILPKPEKSLAKVEKELTPEVLQEWLDELEEMMLVVHMPRFRIEDGFSLKEQLQDMGLVDLFSPEKSKLPGIVAEGRDDLYVSDAFHKAFLEVNEEGSEAAASTALEAQGRSLNPNRVTFKANRPFLVFIREVPLNTIIFMGRVANPCVK
notes: also called DES.LEAI.474

halflife, min (HNE/hep) [11]: 38.4 min
kapp (apparent second-order inhibition rate constant) (human factor Xa [12]): 10700 M⁻¹ s⁻¹
kapp (apparent second-order inhibition rate constant) (human factor Xa [13]): 1.25e+06 M⁻¹ s⁻¹
kapp (apparent second-order inhibition rate constant) (human thrombin [14]): 2680 M⁻¹ s⁻¹
Kapp, thrombin HAH (human thrombin [15]): 2e+06 M⁻¹ s⁻¹
Kapp, thrombin progressive (human thrombin [16]): 2700 M⁻¹ s⁻¹
rsd IIa, HNE (CA #51, stg 1 conc 200) [17]: 2%
rsd IIa, HNE (CA #52, stg 1 conc 200) [17]: 3%
rsd Xa, HNE (CA #51, stg 1 conc 200) [17]: -3%
rsd Xa, HNE (CA #52, stg 1 conc 200) [17]: 3%
IC50 IIa/UFH (HCA #5) (human thrombin [18]): 65 nM
IC50 IIa/UFH (HCA #6) (human thrombin [18]): 55 nM
IC50 IIa/UFH; HCA #2 (human thrombin [18]): 65 nM
IC50 IIa/UFH; HCA #3 (human thrombin [18]): 47 nM
IC50 IIa/UFH; HCA #4 (human thrombin [18]): 50 nM
rsd IIa, no add (CA #51, stg 1 conc 200) (human thrombin [18]): 2%
rsd IIa, no add (CA #52, stg 1 conc 200) (human thrombin [18]): 4%
rsd IIa, catG (CA #51, stg 1 conc 200) [19]: 2%
rsd IIa, catG (CA #52, stg 1 conc 200) [19]: 3%
rsd Xa, catG (CA #51, stg 1 conc 200) [19]: -2%
rsd Xa, catG (CA #52, stg 1 conc 200) [19]: 1%
IC50 fXa/UFH (HCA #5) (human factor Xa [20]): 23 nM
IC50 fXa/UFH (HCA #6) (human factor Xa [20]): 33 nM
IC50 fXa/UFH; HCA #2 (human factor Xa [20]): 20 nM
IC50 fXa/UFH; HCA #3 (human factor Xa [20]): 16 nM
IC50 fXa/UFH; HCA #4 (human factor Xa [20]): 13 nM
rsd Xa, no add (CA #51, stg 1 conc 200) (human factor Xa [20]): -1%
rsd Xa, no add (CA #52, stg 1 conc 200) (human factor Xa [20]): 2%
B2: LEAI.474 (other)
chain: B1 chain
notes: Recombinant human ATIII variant made in Drosophila S2 cells on the S137A background; also called DES.LEAI.474; LEAQ parent

IC50 (factor Xa [21]): 19 nM
Rsd. IIa No add; CA expt #8; stg1 conc 200 (thrombin [22]): 14 % of activity without ATIII
rsd. IIa catG; CA expt #8; stg1 conc 200 (thrombin [22]): 62 % of activity without ATIII
rsd. IIa hne; CA expt #8; stg1 conc 200 (thrombin [22]): 35 % of activity without ATIII
rsd. Xa catG; CA expt #8; stg1 conc 200 (factor Xa [23]): 2 % of activity without ATIII
rsd. Xa hne; CA expt #8; stg1 conc 200 (factor Xa [23]): 1 % of activity without ATIII
rsd. Xa no add; CA expt #8; stg1 conc 200 (factor Xa [23]): 1 % of activity without ATIII
IC50 (thrombin [24]): 450 nM
B3: 7EVEA.453 (other)
chain: B1 chain with A385E, L386V, A388F, Q389A
modifications: N-linked glycans added by Drosophila S2 cells; not carried by the letters
notes: Made in Drosophila S2 cells (DES) on the S137A background; N-terminus printed as SPVDI---
